Test results: article PMC12207588

Tested on: P02768
Assay: SEC; BioSep SEC-s2000 column, PBS pH 7.4, 1 mL/min; share of monomer, dimer and trimer from the UV trace at 280 nm

| Substance | percent dimer and trimer together (SEC UV trace at 280 nm) | percent HSA dimer (SEC UV trace at 280 nm) | percent HSA trimer (SEC UV trace at 280 nm) |
| --- | --- | --- | --- |
| DFO*malHSA (HSA1 conjugated with DFO*maleimide at Cys34) | the other 5% of the UV trace corresponds to the albumin dimer and trimer | – | – |
| Human serum albumin, lyophilized powder from human serum, A1693 (HSA2) | – | 10.7% (6.7 min) | – |
| Human serum albumin, lyophilized powder from human serum, A3782 (HSA3) | – | 3.4% (7.3 min) | – |
| Human serum albumin, pharmaceutical solution Albunorm (HSA1) | – | 1.1% (7.1 min) | 2.9% (5.6 min) |
| Recombinant human serum albumin, lyophilized, A9731 (HSA4) | – | 10.2% (7.2 min) | – |
